[ ]: non-standard residue; d: D form. The star is where a group is joined. Biotin = O=C1N[C@H]2[C@H](CS[C@H]2CCCCC(=O)*)N1; code J = not defined here
B1: PADRE (-) peptide (UAJAAAATLKAA) (peptide)
peptide: Biotin-[code U]A[code J]AAAATLKAA-NH2
modifications: reading uncertain
notes: Synthetic control peptide used to set the background in the T cell capture assay; also called negative control PADRE (-)
B2: dnaJP1 peptide (QKRAAYDQYGHAAFE) (peptide)
peptide: Biotin-QKRAAYDQYGHAAFE-NH2
SMILES: C[C@H](NC(=O)[C@H](C)NC(=O)[C@H](Cc1c[nH]cn1)NC(=O)CNC(=O)[C@H](Cc1ccc(O)cc1)NC(=O)[C@H](CCC(N)=O)NC(=O)[C@H](CC(=O)O)NC(=O)[C@H](Cc1ccc(O)cc1)NC(=O)[C@H](C)NC(=O)[C@H](C)NC(=O)[C@H](CCCNC(=N)N)NC(=O)[C@H](CCCCN)NC(=O)[C@H](CCC(N)=O)NC(=O)CCCC[C@@H]1SC[C@@H]2NC(=O)N[C@@H]21)C(=O)N[C@@H](Cc1ccccc1)C(=O)N[C@@H](CCC(=O)O)C(N)=O
notes: Synthetic peptide

Target: T1, HLA DRB1*0401 molecules (biotinylated recombinant HLA-DR4) (human)
T1 construct: Recombinant and biotinylated; also called biotinylated recombinant MHC
Assay: loading of biotinylated recombinant HLA-DR4 with peptide for aAPCs and tetramers

Binder | binding result
B1 | binds
B2 | binds

Source: US20060039918A1 (University of California, published 2006)
